In this experiment the target is T1, BirA-tagged, biotinylated mouse JAML ectodomain (Mus musculus, biotin on the BirA-tag (by BirA biotin protein ligase)).
T1 chain: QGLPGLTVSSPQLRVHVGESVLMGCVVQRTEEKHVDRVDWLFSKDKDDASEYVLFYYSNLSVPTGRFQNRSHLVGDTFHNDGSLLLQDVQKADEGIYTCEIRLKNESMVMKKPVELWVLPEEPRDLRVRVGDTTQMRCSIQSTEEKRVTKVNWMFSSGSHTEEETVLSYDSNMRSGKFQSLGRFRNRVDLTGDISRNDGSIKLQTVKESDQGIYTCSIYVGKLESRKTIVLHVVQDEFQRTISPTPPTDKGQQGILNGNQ
Description: SPR. For orientation: Surface plasmon resonance follows binding to a sensor surface in real time, without labels.

B1: HL4E10 Fab (fragment of the hamster anti-JAML IgG (λ) HL4E10) (Fab, V domains shown)
VH: QVQLKESGPGLLQPSQTLSLTCTVSGISLSDYGVHWVRQAPGKGLEWMGIIGHAGGTDYNSNLKSRVSISRDTSKSQVFLKLNSLQQEDTAMYFCARHFYTYFDVWGQGIQVTVSS
VL: SYTLTQPPLVSVALGQKATITCSGDKLSDVYVHWYQQKAGQAPVLVIYEDNRRPSGIPDHFSGSNSGNMATLTISKAQAGDEADYYCQSWDGTNSAWVFGSGTKVTVL
Consider B1, for which the Kd – broadly, the concentration at which binding is half-saturated – is around 8 nM and the koff – broadly, the first-order rate constant of dissociation – is around 0.001 s⁻¹.

(Values after article PMC3039130 (Structure (London, England : 1993), 2011).)
